# Data as given in patent EP4578463A1, “ENDO-180 TARGETED ANTIBODY-DRUG CONJUGATES” (Oncomatryx Biopharma, S.L., priority 2023, dated 2025).
# T1: human Endo180-His (aa: 31-513; comprising the first four N-terminal domains) (human, UniProt Q9UBG0 31-513)
# T1 construct: In-house produced; also called huEndo; human Endo180-His molecule; not shown: His tag
# T1 sequence: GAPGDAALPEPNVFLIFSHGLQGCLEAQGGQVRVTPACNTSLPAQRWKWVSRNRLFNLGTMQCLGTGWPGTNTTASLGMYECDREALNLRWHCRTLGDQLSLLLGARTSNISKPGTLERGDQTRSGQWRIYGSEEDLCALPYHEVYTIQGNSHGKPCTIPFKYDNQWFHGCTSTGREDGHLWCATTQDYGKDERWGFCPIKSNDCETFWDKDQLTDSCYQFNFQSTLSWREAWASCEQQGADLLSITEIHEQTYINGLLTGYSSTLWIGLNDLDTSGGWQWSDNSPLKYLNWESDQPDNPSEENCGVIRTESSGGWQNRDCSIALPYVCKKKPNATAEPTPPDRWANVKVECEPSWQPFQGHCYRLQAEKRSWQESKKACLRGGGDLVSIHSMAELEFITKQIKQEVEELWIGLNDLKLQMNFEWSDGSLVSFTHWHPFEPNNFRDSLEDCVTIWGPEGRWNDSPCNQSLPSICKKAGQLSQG
# T2: human Endo180-moFc domains I-II (aa 31-232) (human, UniProt Q9UBG0 31-232)
# T2 construct: also called huEndo180-moFc DI-II; not shown: murine Fc domain
# T2 sequence: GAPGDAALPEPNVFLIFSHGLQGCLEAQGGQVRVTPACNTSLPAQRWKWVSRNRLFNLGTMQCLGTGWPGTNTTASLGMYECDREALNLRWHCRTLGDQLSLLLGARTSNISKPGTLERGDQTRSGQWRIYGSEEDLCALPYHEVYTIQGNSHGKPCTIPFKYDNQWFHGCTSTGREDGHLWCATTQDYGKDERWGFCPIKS
# T3: human Endo180-moFc domain I (aa 31-173) (human, UniProt Q9UBG0 31-173)
# T3 construct: also called huEndo180-moFc DI; not shown: murine Fc domain
# T3 sequence: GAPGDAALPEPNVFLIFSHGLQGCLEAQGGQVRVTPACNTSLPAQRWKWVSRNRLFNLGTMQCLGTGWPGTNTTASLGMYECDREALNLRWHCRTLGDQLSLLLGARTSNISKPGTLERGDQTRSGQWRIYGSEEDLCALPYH
# T4: human Endo180-moFc DI-DIV variant region 1 (N233E, D234G, T237S, Q243P, D246S) (human, UniProt Q9UBG0 31-513)
# T4 construct: Domain III residues swapped to those of MRC1; not shown: murine Fc
# T4 chain: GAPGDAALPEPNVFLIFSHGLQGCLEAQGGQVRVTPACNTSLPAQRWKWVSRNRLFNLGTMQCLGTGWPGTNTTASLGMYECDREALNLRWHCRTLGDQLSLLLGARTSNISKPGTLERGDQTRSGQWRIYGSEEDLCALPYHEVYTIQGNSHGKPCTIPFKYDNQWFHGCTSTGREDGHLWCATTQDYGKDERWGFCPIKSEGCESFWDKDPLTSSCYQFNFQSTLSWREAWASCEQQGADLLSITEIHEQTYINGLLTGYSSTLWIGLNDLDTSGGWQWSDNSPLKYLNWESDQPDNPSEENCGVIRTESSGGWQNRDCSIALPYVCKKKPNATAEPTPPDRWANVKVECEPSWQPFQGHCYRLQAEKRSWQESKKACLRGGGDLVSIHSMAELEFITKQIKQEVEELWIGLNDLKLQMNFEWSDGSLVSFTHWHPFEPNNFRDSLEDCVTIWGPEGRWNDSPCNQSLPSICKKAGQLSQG
# T5: human Endo180-moFc DI-DIV variant region 2 (Q254K, T256A, S258T, E261Q) (human, UniProt Q9UBG0 31-513)
# T5 construct: not shown: murine Fc
# T5 chain: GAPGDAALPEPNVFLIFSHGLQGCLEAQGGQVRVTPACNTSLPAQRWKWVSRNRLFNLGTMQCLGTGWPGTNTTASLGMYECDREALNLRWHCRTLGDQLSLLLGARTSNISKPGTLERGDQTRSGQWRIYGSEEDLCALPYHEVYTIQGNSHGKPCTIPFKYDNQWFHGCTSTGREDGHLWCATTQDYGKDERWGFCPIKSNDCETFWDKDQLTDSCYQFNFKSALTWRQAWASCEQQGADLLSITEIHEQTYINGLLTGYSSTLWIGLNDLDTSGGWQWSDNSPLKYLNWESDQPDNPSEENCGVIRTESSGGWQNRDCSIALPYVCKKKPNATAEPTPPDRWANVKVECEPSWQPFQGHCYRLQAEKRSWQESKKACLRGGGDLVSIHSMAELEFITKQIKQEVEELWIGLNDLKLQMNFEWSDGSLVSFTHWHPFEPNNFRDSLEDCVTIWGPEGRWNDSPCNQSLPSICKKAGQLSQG
# T6: human Endo180-moFc DI-DIV variant region 4 (D304S, T305F, S306N) (human, UniProt Q9UBG0 31-513)
# T6 construct: not shown: murine Fc
# T6 chain: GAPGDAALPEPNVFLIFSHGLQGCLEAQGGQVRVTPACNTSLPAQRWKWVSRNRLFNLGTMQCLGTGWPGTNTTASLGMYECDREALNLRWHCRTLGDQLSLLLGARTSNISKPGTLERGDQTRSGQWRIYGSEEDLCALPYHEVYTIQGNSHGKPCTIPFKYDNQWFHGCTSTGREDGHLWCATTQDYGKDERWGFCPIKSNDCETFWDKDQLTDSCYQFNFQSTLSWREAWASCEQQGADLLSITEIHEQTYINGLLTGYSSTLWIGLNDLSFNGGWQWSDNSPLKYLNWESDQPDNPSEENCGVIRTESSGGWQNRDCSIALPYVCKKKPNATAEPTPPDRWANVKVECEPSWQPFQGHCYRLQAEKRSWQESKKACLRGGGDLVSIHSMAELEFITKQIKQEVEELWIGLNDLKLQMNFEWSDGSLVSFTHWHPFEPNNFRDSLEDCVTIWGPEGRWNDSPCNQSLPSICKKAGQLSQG
# B1: Human IgG1 G7V with a wildtype γ1 heavy chain (antibody, V domains shown)
# VH: EVQLVESGGGLVKPGGSLRLSCAASGFTFSSYSMNWVRQAPGKGLEWVANIKPDGSERHSVDSVKGRFTISRDNSKNSLYLQMNSLRAEDTAVYYCARPGAGRLDYWGQGTLVTVSS
# VL: SSELTQDPAVSVALGQTVRITCQGDSLRSYYASWYQQKPGQAPVLVVYGKNNRPSGIPDRFSGSSSGNTASLTITGAQAEDEADYYCNSRDSSGNPWAFGGGTKVTVLG
# notes: Naked antibody, made in HEK293-6E (lab scale) or CHO (1 L scale); also called IgG G7V; OMTX007-G7V
# Columns and labels:
# [1] = molecular target: T1, human Endo180-His (aa: 31-513; …); assay: ELISA, immobilized human Endo180-His
# [2] = molecular target: T2, human Endo180-moFc domains I-II (aa …); assay: ELISA, immobilized human Endo180-moFc domains
# [3] = molecular target: T3, human Endo180-moFc domain I (aa 31-173); assay: ELISA, immobilized human Endo180-moFc domains
# [4] = molecular target: T4, human Endo180-moFc DI-DIV variant …; assay: ELISA, 10 nM IgG on immobilized variant (3 µg/ml)
# [5] = molecular target: T5, human Endo180-moFc DI-DIV variant …; assay: ELISA, 10 nM IgG on immobilized variant (3 µg/ml)
# [6] = molecular target: T6, human Endo180-moFc DI-DIV variant …; assay: ELISA, 10 nM IgG on immobilized variant (3 µg/ml)
binder,measurement,setting,value
B1,EC50,[1],4.7 nM
same,binding result,[2],no binding (tested: titrated from 0.1 pM to 100 nM)
same,binding result,[3],no binding (tested: titrated from 0.1 pM to 100 nM)
same,binding result,[4],binds
same,binding result,[5],binds
same,binding result,[6],binds
